According to the supplement of paper PMC10567573:
± gives the standard deviation.

Test: protein stability index of a GFP-peptide fusion (GPS, HEK-293T) (PSI 1-6); higher = more stable
[1] = treatment: DMSO, c terminus: a fixed tail appended
[2] = treatment: MLN4924 1 uM, 8 h, c terminus: a fixed tail appended
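Note: 24-mer peptide tiles fused after GFP, lentivirally expressed, FACS-sorted into six equal bins by GFP/DsRed ratio, decoded by Illumina sequencing, PSI is the read-weighted mean bin number.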

Sequence	protein stability index [1]	protein stability index [2]	protein stability index (treatment: DMSO, c terminus: native)	protein stability index (treatment: MLN4924 1 uM, 8 h, c terminus: native)
DATPPVSPINMEDQERIKVERKRL [JUNB]	5.53 ± 0.2	5.36 ± 0.4	–	–
FLEALSSRYLGDSGLDDFFLDIDT [SERTAD3]	2.4 ± 0.4	2.41 ± 0.39	–	–
ARRKSELPQDPHTKKALEAHCRAD [PPP2R5C]	4.68 ± 0.34	5.17 ± 0.12	–	–
NETKSQAFVSNSPKLFCPKNRSFD [PLD5]	4.21 ± 0.23	3.86 ± 0.54	–	–
RTFLETSTDTAVTNEWEKRLSTSP [EPB41L3]	4.17 ± 0.33	3.98 ± 0.2	–	–
CLGVHCDFHQGLLSFYNARTKQVL [FSD1]	2.42 ± 0.69	2.27 ± 0.18	–	–
ERIRLLRQKREAAARKKYNLLQDS [C18orf25]	3.25 ± 0.34	3.6 ± 0.36	–	–
SDASSHANAAKHTQDSARVNPQDG [EHMT1]	5.27 ± 0.22	5.36 ± 0.21	–	–
LVLEQFLTILPTEIETWVREHCPE [ZNF449]	2.2 ± 0.47	2.35 ± 0.47	–	–
GNGVHVCNVKYKRWALLSCRGKKP [KLHDC10]	2.73 ± 0.35	2.94 ± 0.27	–	–
RTKSRTWAGEKSKREMYSRLKKL [CDC25A]	–	–	4.36 ± 0.32	4.51 ± 0.38
TGIEYIVAQGPTNQGLNVMVWNQN [ADAMTSL2]	2.175 ± 0.019	2.1 ± 0.24	–	–
NTKNEISELTRLIQRIRSEIENVK [KRT71]	2.83 ± 0.14	2.78 ± 0.24	–	–
TKKRKTFDSSRQRAEGTDIPTVKP [ZC2HC1A]	4.86 ± 0.22	4.79 ± 0.2	–	–
ISESGGLNWKMTLCLLVAWSIVGM [SLC6A17]	2.71 ± 0.28	2.83 ± 0.67	–	–
MLKFLAKGEVPKGSCEDEPMDSTM [ATE1]	4.22 ± 0.3	4.36 ± 0.092	–	–
VVETINAAIGVTTSPVLPSLIQLL [HACD3]	2.89 ± 0.74	2.81 ± 0.4	–	–
EDHIAHIIELLGSIPRHFALSGKY [SRPK2]	2.71 ± 0.4	2.63 ± 0.58	–	–
NVAASNAKLALFYDWLFFSPDKDS [INTS3]	2.39 ± 0.46	2.55 ± 0.55	–	–
VQEMRNKIREQNLQDIKTAGPQSQ [ADD1]	4.98 ± 0.34	5.1 ± 0.1	–	–
STLGTLQPPPAPPKKIMPEAHSHY [PPFIA4]	4.02 ± 0.18	4.24 ± 0.1	–	–
RSLSERTVDKCFGRKKYDIDPRNG [SPATS1]	4.39 ± 0.24	4.73 ± 0.33	–	–
LGGAIDFGAAYVLEQASSHIGNST [ATL3]	3.03 ± 0.23	3.2 ± 0.15	–	–

Sequence	protein stability index [1]	protein stability index [2]	protein stability index (treatment: DMSO, c terminus: native)	protein stability index (treatment: MLN4924 1 uM, 8 h, c terminus: native)
TGNVCIEEIDVDGKFIRLKNTSEQ [LMNB1]	4.76 ± 0.29	4.76 ± 0.15	–	–
IPEGLNYSENAPFHLSLFQGWMNL [PLD5]	2.2 ± 0.55	1.91 ± 0.38	–	–
ATHILVRQQGNPGHRSIYLALKLP [ADAMTS4]	2.92 ± 0.62	2.1 ± 0.35	–	–
DQFIPIWTVANMEEIKKLTTDPDL [LARP4]	3.97 ± 0.12	3.82 ± 0.42	–	–
LKEDGMETVPWFPKKISDLDHCAN [TPH1]	4.11 ± 0.25	4.09 ± 0.21	–	–
FVGAGRMAGAIAQGLIRAGKVEAQ [PYCR3]	2.96 ± 0.52	2.9 ± 0.33	–	–
FTNCYIYNKPTDDIVLMAQALEKI [BRD3]	2.43 ± 0.45	1.97 ± 0.12	–	–
LKKLAEENPDLQEAYIAKQKRLKS [GDAP1]	4.38 ± 0.22	4.6 ± 0.28	–	–
CCTHNNSATLSWKQPPLSTVPADG [TRIM9]	3.09 ± 0.073	3.02 ± 0.088	–	–
AGNRNSMVIHIPEEPRPSRPRYKA [KCNK9]	4.14 ± 0.35	4.24 ± 0.13	–	–
GAAAQGQTQTVAAQAQALAAQAAA [PI4K2A]	5.07 ± 0.21	4.95 ± 0.21	–	–
LKASEPGLFAVGEHTGEVRTARAL [PCDHGA10]	4.06 ± 0.35	4.21 ± 0.16	–	–
EALKHPWVCQRSTVASMMHRQETV [CAMK2B]	2.88 ± 0.27	2.97 ± 0.21	–	–
LLLILCMQHSFPEPGRLYLDLILA [TMEM192]	3.3 ± 0.48	3.11 ± 0.32	–	–
PVRAYDFLLKFLLVGDSDVGKGEI [RAB40B]	2.28 ± 0.3	2.62 ± 0.58	–	–
GNRINVPMVRKRSVSNSTQTSSSS [DLC1]	4.44 ± 0.13	4.65 ± 0.2	–	–
SNSRQLKWLSCGFMLEIVTPTSLS [FBXO33]	3.39 ± 0.73	2.83 ± 0.67	–	–
MRSAAVLALLLCAGQVTALPVNSP [CHGA]	3.21 ± 0.45	2.83 ± 0.57	–	–
ELKMRAIQAEERLDMEKRRCRQSL [LRRC45]	3.92 ± 0.22	4.13 ± 0.11	–	–
GCLGHGSLTDISQPTIVEALLGYE [NEK8]	3.1 ± 0.11	3.18 ± 0.4	–	–
TWAPKNKGGEERKAEGGEEDSLGC [IRX6]	5.5 ± 0.16	5.42 ± 0.18	–	–
QLVKKLNDSDHQSSTSPLMEGTPT [VPS39]	4.87 ± 0.22	4.9 ± 0.09	–	–
MDTAMEVVKFVNFLLVNGFQTAID [TRAF3IP2]	2.73 ± 1.1	2.79 ± 0.086	–	–

Sequence	protein stability index [1]	protein stability index [2]	protein stability index (treatment: DMSO, c terminus: native)	protein stability index (treatment: MLN4924 1 uM, 8 h, c terminus: native)
LEAEVKDTTRVENLIKSENYGKIL [R3HDM1]	4.3 ± 0.59	4.43 ± 0.42	–	–
DASILTEMPTQPGKPLIPPMNRRN [NETO1]	4.45 ± 0.25	4.64 ± 0.13	–	–
GLSIPSHSSELTEQKLRACLEGSI [RPAIN]	3.63 ± 0.39	3.53 ± 0.24	–	–
AAKRMRLEIYQSSQDEPIALDKQH [NOL4L]	3.59 ± 0.27	3.88 ± 0.25	–	–
LVKKVEEDEAGGRFVAFSGEGQSL [UFD1]	4.71 ± 0.14	4.81 ± 0.18	–	–
LGVGLGVEISRRLRHSNPRADPLV [SPNS1]	3.082 ± 0.029	2.96 ± 0.22	–	–
HSALGGTKKKKKTIVTDVFQGSMR [USP39]	4.02 ± 0.4	4.14 ± 0.058	–	–
NLSKTQNMERFGEDNLEDDDVEMK [CDC14A]	5.4 ± 0.061	5.4 ± 0.12	–	–
LARPECLFLLLGHGASPGLRDGGG [ANKRD9]	2.29 ± 0.54	2.19 ± 0.23	–	–
MEDSQETSPSSNNSSEELSSALHL [NECAB1]	5.57 ± 0.18	5.55 ± 0.18	–	–
SEAEEALYLIAKRNRKLKCTFSLT [SLC22A15]	2.52 ± 0.15	2.56 ± 0.12	–	–
ELVLCVLVSIRNNRNLQKFSLFGD [FBXO33]	2.87 ± 0.54	2.86 ± 0.34	–	–
HYLIFDLVTGGELFEDIVAREYYS [CAMK2A]	2.71 ± 0.72	2.54 ± 0.66	–	–
LIHPELNEGLMKWENRHEGVFKFL [ELF3]	2.36 ± 0.15	2.48 ± 0.19	–	–
PQEESEESNVSMASLGEKRDHHST [CHGB]	5.59 ± 0.37	5.58 ± 0.16	–	–
NCVLSSSPNPFPEISRGEYLYTYD [ZNF8]	2.76 ± 0.42	3.01 ± 0.3	–	–
APFGRISDARVVKDMATGKSKGYG [TIA1]	4.47 ± 0.17	4.35 ± 0.18	–	–
TMEYSMVGRTVLDMLIREVVEKRL [RSPH3]	2.68 ± 0.54	2.64 ± 0.3	–	–
GQEYAAKIINTKKLSARDHQKLER [CAMK2D]	3.96 ± 0.58	3.82 ± 0.096	–	–
SFLNVTKSSLIWSYPAGSLTFPVR [TRIM43]	1.89 ± 0.045	2.17 ± 0.16	–	–
YALRAYLGYQAVPSGSSGSLSTSS [CEBPB]	2.23 ± 0.28	2.36 ± 0.3	–	–
SWARPRPDEERPLRRPRPVQRTQS [RASAL3]	4.46 ± 0.36	4.57 ± 0.26	–	–
SEADASHCIQQILEAVLHCHQMGV [CAMK2B]	2.48 ± 0.14	2.67 ± 0.59	–	–

Sequence	protein stability index [1]	protein stability index [2]	protein stability index (treatment: DMSO, c terminus: native)	protein stability index (treatment: MLN4924 1 uM, 8 h, c terminus: native)
SRLGQGIGPIHLNEIQCTGNEKSI [LOXL2]	4.42 ± 0.32	4.09 ± 0.18	–	–
GQPSEPEHGPSPGQDTFCQGKADG [CHIT1]	5.45 ± 0.32	5.63 ± 0.23	–	–
LDLKRQYDRVAQLDQLLHYRKKSA [CHGB]	3.23 ± 0.26	3.63 ± 0.51	–	–
DKSPSTVRDQGPSIPLTPGDTPIR [FBF1]	5.08 ± 0.18	5.26 ± 0.18	–	–
LSRYQNELAGVDTELLAERFYYQA [SMG5]	2.7 ± 0.51	2.81 ± 0.43	–	–
GPVAGLDDSGGPTPSSYAPSHPPR [ZBTB22]	4.92 ± 0.15	4.79 ± 0.13	–	–
ALGGLQSWRVGVVRVRQDSGAEGH [TRIM35]	2.95 ± 0.46	3.31 ± 0.38	–	–
LLNPEKYKAKSRSPGSPVGEGTGS [ADD1]	4.52 ± 0.26	4.55 ± 0.21	–	–
PAGERRIYRHRIPSTICFGQGAAR [ZNF511]	2.89 ± 0.5	3.22 ± 0.45	–	–
IFQIGVLGFGPTYVVLAYTLPPAS [SOAT1]	2.97 ± 0.27	3.23 ± 0.68	–	–
SKESSKEKKLTVRQDLEDRYAEHV [C22orf31]	5.09 ± 0.27	5.16 ± 0.1	–	–
QARHQLVLTAVDGGTPARSGTTLI [PCDHGC5]	3.18 ± 0.083	3.15 ± 0.38	–	–
AELNKEVSTNTAMIQTSKTEITEL [KRT13]	5.26 ± 0.14	5.18 ± 0.079	–	–
DEPSKPTLALEYTYGRRAKGHNTP [DYNC2LI1]	4.48 ± 0.23	4.65 ± 0.21	–	–
LLLSFWKETDPLTFNFISSLKAIC [PLD5]	3.47 ± 0.96	2.44 ± 0.12	–	–
KVQKPLLQAPFLPPKAPPPVIKIP [RHOBTB1]	3.17 ± 0.11	3.35 ± 0.13	–	–
SEPYKLLPGAVATIVKPLSAIPQP [HNF4A]	3.44 ± 0.3	3.59 ± 0.16	–	–
KLQDVFEMRFAKMPDEPVEAPALP [BRD3]	3.49 ± 0.23	3.62 ± 0.34	–	–
ETRPAKRITITESNMKSRYTTEFH [WEE1]	3.49 ± 0.27	3.6 ± 0.071	–	–
NTSIRVADFGSATFDHEHHTTIVA [CLK3]	3.52 ± 0.45	3.27 ± 0.28	–	–
